Data reported in patent publication CN116203146A (BEIJING DONGFANG BIOTECH CO LTD, dated 2023).
Read-outs that look alike come from different tables or passages of the source.

Tests used:
[1] = molecular target: T1, 人单核细胞白血病细胞(THP-1)表面LILRB4 (human, UniProt Q8NHJ6 22-448); test: cell-based or functional assay
[2] = molecular target: T1, 人单核细胞白血病细胞(THP-1)表面LILRB4; test: cell-based or functional assay; remark: listed apart in the source

Row | Binder | IC50, inhibition of ARG1 secretion by THP-1 cells in the presence of ApoE (arginase activity kit) [1] | IC50, inhibition of ARG1 secretion by THP-1 cells in the presence of ApoE (arginase activity kit) [2]
1 | MA-Ⅰ 鼠源抗LILRB4单克隆抗体 (mouse IgG1/Cκ) (antibody) heavy: not shown light: DIVMTQTTLSLPVSPGDQASISCRSSQSLAHSNGNTYLHWYLQKPGQSPKLLIYKVSNRFSGVPDRFSGSGSGTDFTLKISRVEAEDLGVYFCSQSTLVPTFGGGTKLEIKADAAPTVSIFPPSSEQLTSGGASVVCFLNNFYPKDINVKWKIDGSERQNGVLNSWTDQDSKDSTYSMSSTLTLTKDEYERHNSYTCEATHKTSTSPIVKSFNRNEC | 23.9 µg/mL | 
2 | 人源化抗LILRB4单克隆抗体HA-Ⅱ (human IgG1/Cκ) (antibody, V domains shown) VH: EVQLVESGGGLVKPGGSLRLSCAASGFTFSSYTMSWVRQAPGKGLEWVATISSGGTYTYYPDSVKGRFTISRDNAKNSLYLQMNSLRAEDTAVYYCARDGYDGFDYWGQGTTVTVSS VL: DIVMTQTPLSLSVTPGQPASISCRSSQSLAHSNGNTYLHWYLQKPGQSPQLLIYKVSNRFSGVPDRFSGSGSGTDFTLKISRVEAEDVGVYFCSQSTHVPTFGGGTKVEIKR |  | 250 µg/mL
3 | 人源化抗LILRB4单克隆抗体HA-Ⅰ (human IgG1/Cκ) (antibody, V domains shown) VH: EVQLVESGGGLVKPGGSLRLSCAASGFTFSSYTMSWVRQAPGKGLEWVSTISSGGTYTYYPDSVKGRFTISRDNAKNSLYLQMNSLRAEDTAVYYCARDGYDGFDYWGQGTTVTVSS VL: DIVMTQTPLSLSVTPGQPASISCRSSQSLAHSNGNTYLHWYLQKPGQSPQLLIYKVSNRFSGVPDRFSGSGSGTDFTLKISRVEAEDVGVYYCSQSTHVPTFGGGTKVEIKR |  | 31.2 µg/mL
4 | 人源化抗LILRB4单克隆抗体HA-Ⅲ (human IgG1/Cκ) (antibody, V domains shown) VH: EVQLVESGGGLVKPGGSLRLSCAASGFTFSSYTMSWVRQAPGKGLEWVATISSGGTYTYYPDSVKGRFTISRDNAKNSLYLQMNSLRAEDTAVYYCTRDGYDGFDYWGQGTTVTVSS VL: DIVMTQTPLSLSVTPGQPASISCRSSQSLAHSNGNTYLHWYLQKPGQSPKLLIYKVSNRFSGVPDRFSGSGSGTDFTLKISRVEAEDVGVYFCSQSTHVPTFGGGTKVEIKR |  | 98.5 µg/mL
5 | MB-Ⅰ 鼠源抗LILRB4单克隆抗体 (mouse IgG1/Cκ) (antibody) heavy: QVQLQESGAELVKPGASVKLSCKASGYTFTNYWMHWVKQRPGQGLEWIGEINPSNGRTNYNEKFKTKATLTVDKSSSTAYMQLSSLTSEDSAVYYCARWGQLGLREGYYAVDYWGQGTSVTVSSAKTTPPSVYPLAPGSAAQTNSMVTLGCLVKGYFPEPVTVTWNSGSLSSGVHTFPAVLQSDLYTLSSSVTVPSSTWPSETVTCNVAHPASSTKVDKKIVPRDCGCKPCICTVPEVSSVFIFPPKPKDVLTITLTPKVTCVVVDISKDDPEVQFSWFVDDVEVHTAQTQPREEQFNSTFRSVSELPIMHQDWLNGKEFKCRVNSAAFPAPIEKTISKTKGRPKAPQVYTIPPPKEQMAKDKVSLTCMITDFFPEDITVEWQWNGQPAENYKNTQPIMDTDGSYFVYSKLNVQKSNWEAGNTFTCSVLHEGLHNHHTEKSLSHSPG light: DIVMTQSPSSLSASLGDRVTISCRASQDISNYLNWYQQKPDGTVKLLIYYTSRLHSGVPSRFSGSGSGTDYSLTISNLEQEDIATYFCQQGNTLPPTFGGGTKLEIKADAAPTVSIFPPSSEQLTSGGASVVCFLNNFYPKDINVKWKIDGSERQNGVLNSWTDQDSKDSTYSMSSTLTLTKDEYERHNSYTCEATHKTSTSPIVKSFNRNEC | 46 µg/mL | 
